This note sets out measurements from publication PMC4989518, “In situ expression of (R)-carbonyl reductase rebalancing an asymmetric pathway improves stereoconversion efficiency of racemic mixture to (S)-phenyl-1,2-ethanediol in Candida parapsilosis CCTCC M203011” (Microbial Cell Factories, 2016).

The test system of the data set is OC[C@H](O)c1ccccc1. Kind of data set: purified protein. The note with it: oxidation to 2-HAP, NAD+, 100 mM acetate pH 6.5, 35 °C, enzyme from C. parapsilosis/pCP-rcr.

As for “recombinant RCR (C. parapsilosis/pCP-rcr) (Lodderomyces parapsilosis)”, the Michaelis-Menten constant (Km) stood at 6.31 ± 0.09 mM, the kcat is 3.19 ± 0.22 s⁻¹ and the kcat/Km worked out at 510 M⁻¹ s⁻¹.
